Source: patent US20230257473A1 (TENEOBIO, published 2023)

T1: human BCMA protein (human, UniProt Q02223 1-54, limits assumed)
T1 sequence (looked up): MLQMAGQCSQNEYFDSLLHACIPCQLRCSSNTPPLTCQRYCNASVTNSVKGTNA

B1: anti-BCMA heavy chain-only antibody (UniAb) with the VH of SEQ ID NO: 12 (antibody, V domains shown)
VH: QVQLVESGGGLVQPGGSLRLSCVASGFTFSSNAMSWVRQAPGKGLEWVSAISGSGDYTHYSDSVKGRFTISRDNSKNTLYLQMNSLRAEDTAVYYCAKEVPGGPLVDFDSRGQGTLVTVSS
notes: Heavy chain-only antibody from UniRat; also called Clone ID No: 316302
B2: AntiX**BCMA_F7E_F7E (bispecific antibody, part only; not given: other chains of three-chain format, not shown: another chain or arm of the molecule)
tandem VH: QVQLVESGGGLVQPGGSLRLSCVASGFTFSSNAMSWVRQAPGKGLEWVSAISGSGDYTHYSDSVKGRFTISRDNSKNTLYLQMNSLRAEDTAVYYCAKEVPGGPLVDFDSRGQGTLVTVSSGGGGSGGGGSQVQLVESGGGLVQPGGSLRLSCVASGFTFSSNAMSWVRQAPGKGLEWVSAISGSGDYTHYSDSVKGRFTISRDNSKNTLYLQMNSLRAEDTAVYYCAKEVPGGPLVDFDSRGQGTLVTVSS

How the values were obtained:
human BCMA protein = target: T1, human BCMA protein; assay: ELISA protein and cell-binding assays
[1] = target: recombinant BCMA (R&D Systems, catalog no. 193-BC) (human) (UniProt Q02223); assay: competitive ELISA, plate-bound BCMA; Ab 0.020 ng/mL; competitor APRIL 500.00 ng/mL
[2] = target: BCMA on BCMA-expressing cells (H929 / NCI-H929, MM1.S, U266, Daudi) (human) (UniProt Q02223); assay: flow cytometry on H929 cells; antibody 1.560 ng/ml
[3] = target: recombinant BCMA (R&D Systems, catalog no. 193-BC) (human) (UniProt Q02223); assay: competitive ELISA, plate-bound BCMA; Ab 200.000 ng/mL; competitor APRIL 250.00 ng/mL
[4] = target: recombinant BCMA (R&D Systems, catalog no. 193-BC) (human) (UniProt Q02223); assay: competitive ELISA, plate-bound BCMA; Ab 20.000 ng/mL; competitor APRIL 0.00 ng/mL
[5] = target: recombinant BCMA (R&D Systems, catalog no. 193-BC) (human) (UniProt Q02223); assay: competitive ELISA, plate-bound BCMA; Ab 0.200 ng/mL; competitor APRIL 0.00 ng/mL
[6] = target: recombinant BCMA (R&D Systems, catalog no. 193-BC) (human) (UniProt Q02223); assay: competitive ELISA, plate-bound BCMA; Ab 200.000 ng/mL; competitor APRIL 15.63 ng/mL
[7] = target: BCMA on BCMA-expressing cells (H929 / NCI-H929, MM1.S, U266, Daudi) (human) (UniProt Q02223); assay: flow cytometry on H929 cells; antibody 200.000 ng/ml
[8] = target: BCMA on BCMA-expressing cells (H929 / NCI-H929, MM1.S, U266, Daudi) (human) (UniProt Q02223); assay: flow cytometry on H929 cells; antibody 0.098 ng/ml
[9] = target: BCMA on BCMA-expressing cells (H929 / NCI-H929, MM1.S, U266, Daudi) (human) (UniProt Q02223); assay: flow cytometry on H929 cells; antibody 0.391 ng/ml
[10] = target: BCMA on BCMA-expressing cells (H929 / NCI-H929, MM1.S, U266, Daudi) (human) (UniProt Q02223); assay: flow cytometry on MM1.S cells; antibody 0.391 ng/ml
[11] = target: recombinant BCMA (R&D Systems, catalog no. 193-BC) (human) (UniProt Q02223); assay: competitive ELISA, plate-bound BCMA; Ab 20.000 ng/mL; competitor APRIL 250.00 ng/mL
[12] = target: recombinant BCMA (R&D Systems, catalog no. 193-BC) (human) (UniProt Q02223); assay: competitive ELISA, plate-bound BCMA; Ab 2.000 ng/mL; competitor APRIL 250.00 ng/mL
[13] = target: BCMA on BCMA-expressing cells (H929 / NCI-H929, MM1.S, U266, Daudi) (human) (UniProt Q02223); assay: flow cytometry on H929 cells; antibody 3.130 ng/ml
[14] = target: recombinant BCMA (R&D Systems, catalog no. 193-BC) (human) (UniProt Q02223); assay: competitive ELISA, plate-bound BCMA; Ab 200.000 ng/mL; competitor APRIL 500.00 ng/mL
[15] = target: recombinant BCMA (R&D Systems, catalog no. 193-BC) (human) (UniProt Q02223); assay: competitive ELISA, plate-bound BCMA; Ab 0.020 ng/mL; competitor APRIL 15.63 ng/mL
[16] = target: recombinant BCMA (R&D Systems, catalog no. 193-BC) (human) (UniProt Q02223); assay: competitive ELISA, plate-bound BCMA; Ab 20.000 ng/mL; competitor APRIL 62.50 ng/mL
[17] = target: BCMA on BCMA-expressing cells (H929 / NCI-H929, MM1.S, U266, Daudi) (human) (UniProt Q02223); assay: flow cytometry on MM1.S cells; antibody 3.130 ng/ml
[18] = target: recombinant BCMA (R&D Systems, catalog no. 193-BC) (human) (UniProt Q02223); assay: competitive ELISA, plate-bound BCMA; Ab 20.000 ng/mL; competitor APRIL 7.81 ng/mL
[19] = target: BCMA on BCMA-expressing cells (H929 / NCI-H929, MM1.S, U266, Daudi) (human) (UniProt Q02223); assay: flow cytometry on MM1.S cells; antibody 0.098 ng/ml
[20] = target: BCMA on BCMA-expressing cells (H929 / NCI-H929, MM1.S, U266, Daudi) (human) (UniProt Q02223); assay: flow cytometry on H929 cells; antibody 12.500 ng/ml
[21] = target: BCMA on BCMA-expressing cells (H929 / NCI-H929, MM1.S, U266, Daudi) (human) (UniProt Q02223); assay: flow cytometry on H929 cells; antibody 50.000 ng/ml
[22] = target: BCMA on BCMA-expressing cells (H929 / NCI-H929, MM1.S, U266, Daudi) (human) (UniProt Q02223); assay: flow cytometry on MM1.S cells; antibody 12.500 ng/ml

Binder	A450-A570 [1]	MFI [2]	A450-A570 [3]	A450-A570 [4]	A450-A570 [5]	A450-A570 [6]	MFI [7]	MFI [8]	MFI [9]	MFI [10]	A450-A570 [11]	A450-A570 [12]	MFI [13]	A450-A570 [14]	A450-A570 [15]	A450-A570 [16]	MFI [17]	A450-A570 [18]	MFI [19]	also measured
B1	0.0835	5100	0.969	0.466	0.0708	2.4	14100	5060	5030	2070	0.148	0.0837	5170	0.482	0.0614	0.359	2110	0.495	2040	binding result (human BCMA protein): binds
B2	0.0631	5060	2.21	0.648	0.0676	2.37	52900	5070	5040	2030	0.413	0.0921	5140	1.41	0.0584	0.537	2070	0.789	1960	MFI [20]: 5680; MFI [21]: 10900; MFI [22]: 2180
